Experimental data: the supplement of paper PMC5998384

Tests used:
[1] = test system: HeLa Kyoto; test: solubility in G1/S (NP-40 vs SDS abundance) (log2 ratio); higher = more soluble; conditions: cell cycle stage: G1/S
[2] = test system: HeLa Kyoto; test: thermal stability score vs G1/S (z-score of summed log2 fold changes over temperatures); higher = more thermally stable than in G1/S
[3] = test system: HeLa Kyoto; test: melting temperature (median over replicates), in situ; higher = more thermally stable
[4] = test system: HeLa Kyoto; test: solubility change mitosis vs G1/S (difference of NP-40 vs SDS log2 ratios) (log2 ratio difference); higher = more soluble in mitosis
[5] = cell cycle stage: early G1 (4.5 h after nocodazole release)
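For melting temperature (median over replicates), in situ in this document: HeLa Kyoto cells synchronized by double thymidine or nocodazole block, proteins quantified by TMT10plex mass spectrometry, three independent biological replicates.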
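For solubility change mitosis vs G1/S (difference of NP-40 vs SDS log2 ratios) in this document: synchronized HeLa Kyoto cells (double thymidine block for G1/S, nocodazole release for mitosis), protein amounts in NP-40 versus SDS lysates quantified by mass spectrometry, three biological replicates.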
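For solubility in G1/S (NP-40 vs SDS abundance) in this document: HeLa Kyoto cells arrested at G1/S by double thymidine block, proteins quantified by TMT10plex mass spectrometry in mild NP-40 versus SDS extracts, three biological replicates.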
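For thermal stability score vs G1/S (z-score of summed log2 fold changes over temperatures) in this document: synchronized HeLa Kyoto cells, proteins quantified by TMT10plex mass spectrometry, three biological replicates, mitosis taken 0.5 h after nocodazole release, G1/S directly after double thymidine block.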

Row | Substance | solubility in G1/S (log2) [1] | thermal stability score [2, 5] | thermal stability score ([2]; cell cycle stage: mitosis) | melting temperature ([3]; cell cycle stage: G1/S) | melting temperature ([3]; cell cycle stage: mitosis) | solubility change mitosis (log2) [4]
1 | MATKCGNCGPGYSTPLEAMKGPREEIVYLPCIYRNTGTEAPDYLATVDVDPKSPQYCQVIHRLPMPNLKDELHHSGWNTCSSCFGDSTKSRTKLVLPSLISSRIYVVDVGSEPRAPKLHKVIEPKDIHAKCELAFLHTSHCLASGEVMISSLGDVKGNGKGGFVLLDGETFEVKGTWERPGGAAPLGYDFWYQPRHNVMISTEWAAPNVLRDGFNPADVEAGLYGSHLYVWDWQRHEIVQTLSLKDGLIPLEIRFLHNPDAAQGFVGCALSSTIQRFYKNEGGTWSVEKVIQVPPKKVKGWLLPEMPGLITDILLSLDDRFLYFSNWLHGDLRQYDISDPQRPRLTGQLFLGGSIVKGGPVQVLEDEELKSQPEPLVVKGKRVAGGPQMIQLSLDGKRLYITTSLYSAWDKQFYPDLIREGSVMLQVDVDTVKGGLKLNPNFLVDFGKEPLGPALAHELRYPGGDCSSDIWI [SELENBP1] | 0.265 | -0.479 | -0.737 | 59.7 °C | 60.9 °C | -0.131
2 | MATNWGSLLQDKQQLEELARQAVDRALAEGVLLRTSQEPTSSEVVSYAPFTLFPSLVPSALLEQAYAVQMDFNLLVDAVSQNAAFLEQTLSSTIKQDDFTARLFDIHKQVLKEGIAQTVFLGLNRSDYMFQRSADGSPALKQIEINTISASFGGLASRTPAVHRHVLSVLSKTKEAGKILSNNPSKGLALGIAKAWELYGSPNALVLLIAQEKERNIFDQRAIENELLARNIHVIRRTFEDISEKGSLDQDRRLFVDGQEIAVVYFRDGYMPRQYSLQNWEARLLLERSHAAKCPDIATQLAGTKKVQQELSRPGMLEMLLPGQPEAVARLRATFAGLYSLDVGEEGDQAIAEALAAPSRFVLKPQREGGGNNLYGEEMVQALKQLKDSEERASYILMEKIEPEPFENCLLRPGSPARVVQCISELGIFGVYVRQEKTLVMNKHVGHLLRTKAIEHADGGVAAGVAVLDNPYPV [GSS] | 0.238 | -2.26 | -1.74 | 58.6 °C | 58.6 °C | -0.0933
3 | MGDAADPREMRKTFIVPAIKPFDHYDFSRAKIACNLAWLVAKAFGTENVPEELQEPFYTDQYDQEHIKPPVVNLLLSAELYCRAGSLILKSDAAKPLLGHDAVIQALAQKGLYVTDQEKLVTERDLHKKPIQMSAHLAMIDTLMMAYTVEMVSIEKVIACAQQYSAFFQATDLPYDIEDAVMYWINKVNEHLKDIMEQEQKLKEHHTVEAPGGQKSPSKWFWKLVPARYRKEQTLLKQLPCIPLVENLLKDGTDGCALAALIHFYCPDVVRLEDICLKETMSLADSLYNLQLIQEFCQEYLNQCCHFTLEDMLYAASSIKSNYLVFMAELFWWFEVVKPSFVQPRVVRPQGAEPVKDMPSIPVLNAAKRNVLDSSSDFPSSGEGATFTQSHHHLPSRYSRPQAHSSASGGIRRSSSMSYVDGFIGTWPKEKRSSVHGVSFDISFDKEDSVQRSTPNRGITRSISNEGLTLNNSHVSKHIRKNLSFKPINGEEEAESIEEELNIDSHSDLKSCVPLNTNELNSNENIHYKLPNGALQNRILLDEFGNQIETPSIEEALQIIHDTEKSPHTPQPDQIANGFFLHSQEMSILNSNIKLNQSSPDNVTDTKGALSPITDNTEVDTGIHVPSEDIPETMDEDSSLRDYTVSLDSDMDDASKFLQDYDIRTGNTREALSPCPSTVSTKSQPGSSASSSSGVKMTSFAEQKFRKLNHTDGKSSGSSSQKTTPEGSELNIPHVVAWAQIPEETGLPQGRDTTQLLASEMVHLRMKLEEKRRAIEAQKKKMEAAFTKQRQKMGRTAFLTVVKKKGDGISPLREEAAGAEDEKVYTDRAKEKESQKTDGQRSKSLADIKESMENPQAKWLKSPTTPIDPEKQWNLASPSEETLNEGEILEYTKSIEKLNSSLHFLQQEMQRLSLQQEMLMQMREQQSWVISPPQPSPQKQIRDFKPSKQAGLSSAIAPFSSDSPRPTHPSPQSSNRKSASFSVKSQRTPRPNELKITPLNRTLTPPRSVDSLPRLRRFSPSQVPIQTRSFVCFGDDGEPQLKESKPKEEVKKEELESKGTLEQRGHNPEEKEIKPFESTVSEVLSLPVTETVCLTPNEDQLNQPTEPPPKPVFPPTAPKNVNLIEVSLSDLKPPEKADVPVEKYDGESDKEQFDDDQKVCCGFFFKDDQKAENDMAMKRAALLEKRLRREKETQLRKQQLEAEMEHKKEETRRKTEEERQKKEDERARREFIRQEYMRRKQLKLMEDMDTVIKPRPQVVKQKKQRPKSIHRDHIESPKTPIKGPPVSSLSLASLNTGDNESVHSGKRTPRSESVEGFLSPSRCGSRNGEKDWENASTTSSVASGTEYTGPKLYKEPSAKSNKHIIQNALAHCCLAGKVNEGQKKKILEEMEKSDANNFLILFRDSGCQFRSLYTYCPETEEINKLTGIGPKSITKKMIEGLYKYNSDRKQFSHIPAKTLSASVDAITIHSHLWQTKRPVTPKKLLPTKA [CAMSAP2] | 0.00851 | 1.04 | 2.88 | 51.7 °C | 53 °C | -0.0823
4 | ZFYVE16 | -0.0282 | -2.53 | -1.48 | 53.2 °C | 52.7 °C | -0.171
5 | MVHFCGLLTLHREPVPLKSISVSVNIYEFVAGVSATLNYENEEKVPLEAFFVFPMDEDSAVYSFEALVDGKKIVAELQDKMKARTNYEKAISQGHQAFLLEGDSSSRDVFSCNVGNLQPGSKAAVTLKYVQELPLEADGALRFVLPAVLNPRYQFSGSSKDSCLNVKTPIVPVEDLPYTLSMVATIDSQHGIEKVQSNCPLSPTEYLGEDKTSAQVSLAAGHKFDRDVELLIYYNEVHTPSVVLEMGMPNMKPGHLMGDPSAMVSFYPNIPEDQPSNTCGEFIFLMDRSGSMQSPMSSQDTSQLRIQAAKETLILLLKSLPIGCYFNIYGFGSSYEACFPESVKYTQQTMEEALGRVKLMQADLGGTEILAPLQNIYRGPSIPGHPLQLFVFTDGEVTDTFSVIKEVRINRQKHRCFSFGIGEGTSTSLIKGIARASGGTSEFITGKDRMQSKALRTLKRSLQPVVEDVSLSWHLPPGLSAKMLSPEQTVIFRGQRLISYAQLTGRMPAAETTGEVCLKYTLQGKTFEDKVTFPLQPKPDVNLTIHRLAAKSLLQTKDMGLRETPASDKKDALNLSLESGVISSFTAFIAINKELNKPVQGPLAHRDVPRPILLGASAPLKIKCQSGFRKALHSDRPPSASQPRGELMCYKAKTFQMDDYSLCGLISHKDQHSPGFGENHLVQLIYHQNANGSWDLNEDLAKILGMSLEEIMAAQPAELVDSSGWATILAVIWLHSNGKDLKCEWELLERKAVAWMRAHAGSTMPSVVKAAITFLKSSVDPAIFAF [VWA5A] | 0.137 | -0.428 | -0.133 | 52.3 °C | 52.2 °C | -0.132
6 | MGQIEWAMWANEQALASGLILITGGIVATAGRFTQWYFGAYSIVAGVFVCLLEYPRGKRKKGSTMERWGQKYMTAVVKLFGPFTRNYYVRAVLHLLLSVPAGFLLATILGTACLAIASGIYLLAAVRGEQWTPIEPKPRERPQIGGTIKQPPSNPPPRPPAEARKKPSEEEAAVAAGGPPGGPQVNPIPVTDEVV [CYBA] | 0.005 | -0.561 | -1.21 | 54.8 °C | 54 °C | -0.167
7 | MGARASGGPLARAGLLLLLLLLLLLGLLAPGAQGARGRGGAEKNSYRRTVNTFSQSVSSLFGEDNVRAAQKFLARLTERFVLGVDMFVETLWKVWTELLDVLGLDVSNLSQYFSPASVSSSPARALLLVGVVLLAYWFLSLTLGFTFSVLHVVFGRFFWIVRVVLFSMSCVYILHKYEGEPENAVLPLCFVVAVYFMTGPMGFYWRSSPSGPSNPSNPSVEEKLEHLEKQVRLLNIRLNRVLESLDRSKDK [BRI3BP] | -0.138 | -0.814 | -3.07 | 55.1 °C | 53.1 °C | 0.0237
8 | MTGRAMDPLPAAAVGAAAEAEADEEADPPASDLPTPQAIEPQAIVQQVPAPSRMQMPQGNPLLLSHTLQELLARDTVQVELIPEKKGLFLKHVEYEVSSQRFKSSVYRRYNDFVVFQEMLLHKFPYRMVPALPPKRMLGADREFIEARRRALKRFVNLVARHPLFSEDVVLKLFLSFSGSDVQNKLKESAQCVGDEFLNCKLATRAKDFLPADIQAQFAISRELIRNIYNSFHKLRDRAERIASRAIDNAADLLIFGKELSAIGSDTTPLPSWAALNSSTWGSLKQALKGLSVEFALLADKAAQQGKQEENDVVEKLNLFLDLLQSYKDLCERHEKGVLHKHQRALHKYSLMKRQMMSATAQNREPESVEQLESRIVEQENAIQTMELRNYFSLYCLHQETQLIHVYLPLTSHILRAFVNSQIQGHKEMSKVWNDLRPKLSCLFAGPHSTLTPPCSPPEDGLCPH [SNX8] | 0.249 | -2.07 | -2.85 | 54 °C | 55.7 °C | -0.153
9 | RSBN1L | -0.468 | -0.891 | -3.56 | 54.7 °C | 53.4 °C | 0.0823
10 | MQRASRLKRELHMLATEPPPGITCWQDKDQMDDLRAQILGGANTPYEKGVFKLEVIIPERYPFEPPQIRFLTPIYHPNIDSAGRICLDVLKLPPKGAWRPSLNIATVLTSIQLLMSEPNPDDPLMADISSEFKYNKPAFLKNARQWTEKHARQKQKADEEEMLDNLPEAGDSRVHNSTQKRKASQLVGIEKKFHPDV [UBE2T] | 0.66 | -0.273 | -0.0505 | 49.2 °C | 49.9 °C | 0.118
